Assay results: patent US20220273713A1, “METHOD OF INHIBITING OR ACTIVATING GAMMA DELTA T CELLS” (The University of Melbourne, priority 2019, published 2022)
Values joined by “and” are separate entries in the source; they are usually repeats but may differ in a detail not shown here. Identical values can stand only once.

T1: human BTN2A2, isoform 1 (human, UniProt Q8WVV5 33-523)
T1 construct: whole, on cells
T1 sequence (looked up): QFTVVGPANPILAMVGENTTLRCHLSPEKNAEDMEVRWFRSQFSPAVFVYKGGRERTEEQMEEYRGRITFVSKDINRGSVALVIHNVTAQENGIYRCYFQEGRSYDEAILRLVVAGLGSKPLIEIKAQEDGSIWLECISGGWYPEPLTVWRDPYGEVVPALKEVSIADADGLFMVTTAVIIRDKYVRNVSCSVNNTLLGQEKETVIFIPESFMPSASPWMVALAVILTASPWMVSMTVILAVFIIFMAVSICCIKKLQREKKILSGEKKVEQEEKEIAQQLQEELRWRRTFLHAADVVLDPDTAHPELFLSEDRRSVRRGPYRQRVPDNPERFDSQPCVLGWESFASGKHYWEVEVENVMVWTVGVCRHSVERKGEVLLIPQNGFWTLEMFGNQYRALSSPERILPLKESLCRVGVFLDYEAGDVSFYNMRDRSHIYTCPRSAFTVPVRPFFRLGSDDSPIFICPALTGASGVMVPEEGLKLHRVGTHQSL

B1: Hu34C1: antagonist anti-BTN2A1 mAb; VH SEQ ID NO: 100, VL SEQ ID NO: 101; human IgG4 Fab, murine IgG2a Fc (antibody, V domains shown)
VH: EVQLLESGGGLVQPGGSLRLSCAASGFTFSHYPMIWVRQAPGKGLEWVSSISSSGGSTHYADSVKGRFTISRDNSKNTLYLQMNSLRAEDTAMYYCAALVSDTDFWGQGTLVTVSS
VL: DIQMTQSPATLSVSPGESTTLSCRASQSVTSNLAWYQQKPGQAPSLLIYGASTRATGIPARFSGSGSGTEFTLTISSLQSEDSAVYYCQQYNNWPRTFGQGTKVEIK
modifications: human IgG4 Fab, murine IgG2a Fc constant regions; amino acid sequence of Hu34C VH; amino acid sequence of Hu34C VL
B2: anti-BTN2A1 antibody 259 (antibody, V domains shown)
VH: EVQLLESGGGLVQPGGSLRLSCAASGFTFSSYAMQWVRQAPGKGLEWVSRIGPSGGGTMYADSVKGRFTISRDNSKNTLYLQMNSLRAEDMAVYYCARDLGGLSVLFDYWGQGTLVTVSS
VL: QSELTQPPSASETPGQRVTISCSGSSSNIGSNTVSWFQQLPGSAPRLLIYNDHRRPSGVPDRFSGSKSGTSASLVISGLQSQDEADYYCSAWDDSLNGVVFGGGTKLTVL
B3: human BTNL8, isoform 1, on cells (ligand, UniProt Q6UX41 18-500, looked up)
chain: QWQVFGPDKPVQALVGEDAAFSCFLSPKTNAEAMEVRFFRGQFSSVVHLYRDGKDQPFMQMPQYQGRTKLVKDSIAEGRISLRLENITVLDAGLYGCRISSQSYYQKAIWELQVSALGSVPLISITGYVDRDIQLLCQSSGWFPRPTAKWKGPQGQDLSTDSRTNRDMHGLFDVEISLTVQENAGSISCSMRHAHLSREVESRVQIGDTFFEPISWHLATKVLGILCCGLFFGIVGLKIFFSKFQWKIQAELDWRRKHGQAELRDARKHAVEVTLDPETAHPKLCVSDLKTVTHRKAPQEVPHSEKRFTRKSVVASQSFQAGKHYWEVDGGHNKRWRVGVCRDDVDRRKEYVTLSPDHGYWVLRLNGEHLYFTLNPRFISVFPRTPPTKIGVFLDYECGTISFFNINDQSLIYTLTCRFEGLLRPYIEYPSYNEQNGTPIVICPVTQESEKEASWQRASAIPETSNSESSSQATTPFLPRGEM
notes: whole, on cells; also called B7NL8

Key:
[1] = target: 'hybrid' Vγ9+Vδ1+ γδTCR (TCR #6 γ-chain paired with an irrelevant Vδ1+ chain), soluble ectodomain (human); experiment: SPR, γδTCR ectodomain immobilized on streptavidin chip, soluble BTN2A1 200-3.1 µM, KD derived at equilibrium
Chain of 'hybrid' Vγ9+Vδ1+ γδTCR (TCR #6 γ-chain paired with an irrelevant Vδ1+ chain), soluble ectodomain (human) (TCR gamma, as listed by the source): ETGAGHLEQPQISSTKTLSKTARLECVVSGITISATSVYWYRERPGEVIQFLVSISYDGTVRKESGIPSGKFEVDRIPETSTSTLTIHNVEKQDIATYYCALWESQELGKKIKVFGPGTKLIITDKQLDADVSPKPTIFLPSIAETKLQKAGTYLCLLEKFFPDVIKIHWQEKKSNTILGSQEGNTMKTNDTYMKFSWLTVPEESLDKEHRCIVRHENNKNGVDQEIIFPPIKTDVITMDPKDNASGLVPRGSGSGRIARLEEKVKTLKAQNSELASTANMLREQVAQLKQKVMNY

[2] = target: 'hybrid' Vγ9+Vδ1+ γδTCR (TCR #6 γ-chain paired with an irrelevant Vδ1+ chain), soluble ectodomain (human); experiment: surface plasmon resonance, binding at equilibrium (saturation plot with Scatchard inset, Expt. 1 and Expt. 2), soluble BTN2A1 200-3.1 µM over immobilized hybrid TCR
[3] = system: Vγ9Vδ2 cells; experiment: Luminex (Vγ9Vδ2): cytokine/chemokine secretion by pre-expanded Vγ9Vδ2 cells; assay type: cell-based, human; conditions: for GMCSF / ICAM-1 / IFNγ / IL-4 / IL-8 / IL-13 / IL-17A / MIP-1a / MIP-1b / TNFα / sE-selectin / sP-Selectin: 16 hrs, antibodies 10 μg/ml, Zoledronic acid 4 μM, HMBPP 0.5 ng/ml, duplicates, 0 set to 0.1; for cytokine/chemokine secretion, in words: vs isotype (BM4);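 for all read-outs here: Vγ9Vδ2 cells purified from PBMC, activated 48 h with CD3 and CD28 plus IL-2, expanded 14 days in IL-2, then thawed and rested overnight in IL-2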
Description: Briefly, Vγ9Vδ2 cells were isolated from 1 healthy donor (Red Cross Australia) and 1 cancer patient derived PBMC using TCRγ/δ+ T Cell Isolation Kit (Miltenyi). Cells were stimulated for 48 hours in TCRPMI supplemented with 100u/ml IL-2, CD3 (10 μg/ml) and CD28 (1 μg/ml). Cells were washed and grown for 14 days in TCRPMI supplemented with 100u/ml IL-2 at 37 degrees C. and 5% CO2, and then frozen down. […] Vγ9Vδ2 were defrosted and rested overnight in TCRPMI supplemented with 50u/ml IL-2 at 37 degrees C. and 5% CO2. […] All samples were run with appropriate controls and standards.

[4] = target: BTN2A1 B30.2 domain (Homo sapiens, UniProt Q7KYR7); conditions: ITC, 25° C., B30.2 domain 100 μM, pAg 2 mM
Chain of BTN2A1 B30.2 domain (Q7KYR7 310-506 limits assumed): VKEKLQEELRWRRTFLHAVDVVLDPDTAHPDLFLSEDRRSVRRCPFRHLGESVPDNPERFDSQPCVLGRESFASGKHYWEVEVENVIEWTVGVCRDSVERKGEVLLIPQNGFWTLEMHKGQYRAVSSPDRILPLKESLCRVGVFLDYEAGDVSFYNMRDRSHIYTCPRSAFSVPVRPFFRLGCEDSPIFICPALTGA
Description: ITC experiments were conducted on a MicroCal ITC200 instrument (GE Healthcare) at 25° C. […] Data were analysed with Microcal Origin software.

[5] = system: Vγ9^+ T cells; conditions: cited from earlier work
[6] = system: Vδ2^+ γδ T cells among PBMCs; experiment: γδ T cell functional assay: PBMC ± zoledronate ± anti-BTN2A1 mAb; assay type: cell-based, human; conditions: PBMCs 24 h, 4 μM zoledronate, 10 μg/ml anti-BTN2A1 mAb, compared to isotype control mAb
Description: Fresh PBMC (2×10^6) were cultured in 24 well plates ±zoledronate (4 μM, Sigma) and purified mAb against BTN2A1, BTN3A1, or isotype control IgG1κ (MOPC-21, BioLegend) (10 μg/ml) After 24 h CD3ε^+ γδTCR^+ Vδ2^+/− γδ T cell activation was assessed by flow cytometry and cytokine production was determined by cytometric bead array according to manufacturer instructions (BD). For the assays in FIG. 14, PBMC were cultured in 24 well plates and blocked for 30 min with mAb against BTN2A1, BTN3A1, or isotype control (10 μg/ml). […] Cells were surface-stained and then fixed and permeabilized using Foxp3/Transcription Factor Staining Buffer Set (Invitrogen) according to the manufacturer's protocol followed by staining with anti-IFN-γ (Biolegend). For co-culture assays, purified and in vitro-expanded γδ T cells (5×10^5) were incubated in 96 well plates with APCs (3×10^5) for 24 h ±zoledronate (4 μM), and γδ T cell activation was determined by flow cytometry as above.

[7] = system: in vitro pre-expanded CD3+Vδ2+ γδ T cells; experiment: HMBPP or anti-CD3/anti-CD28 activation of purified in vitro-expanded Vδ2+ T cells ± neutralizing anti-BTN2A1 mAb; assay type: cell-based, human; conditions: HMBPP 0.5 ng/ml, 10 μg/ml neutralizing anti-BTN2A1 mAb, no APCs
Description: CD25 expression was determined by flow cytometry, and IFN-γ concentration was determined by cytometric bead array (BD Bioscience) as per manufacturer instructions.

[8] = target: T1, human BTN2A2, isoform 1; experiment: told in the legend of FIG. 24; data in FIG. 11 (ELISA, transfected cells)
Description: Purified recombinant proteins (0.2-20 μg/ml) were immobilized in microplate wells in PBS buffer overnight at 4° C. Non-specific binding was then blocked by incubation in PBS containing 0.05% tween 20 plus 5% skim milk powder or 0.5% (w/v) bovine serum albumin (BSA). The wells were then incubated for 60 minutes at room temperature in the presence of antibodies at 2-5 μg/mL in PBS/0.05% tween-20/2% skim milk powder or 0.5% BSA, followed by washing in PBS/0.05% tween-20. Plates were then incubated with HRP-labelled sheep anti-mouse IgG secondary antibody (Chemicon), or goat anti-mouse IgG secondary antibody (Millipore) followed by detection using 3,3′,5,5′-tetramethylbenzidine substrate (Sigma) and absorbance was measured at 450 nm using a plate reader.

[9] = target: T2, human BTN3A1, isoform 1, on cells (human, UniProt O00481 30-513); experiment: FRET between C-terminal CFP/YFP tags on co-transfected NIH-3T3 cells, flow cytometry (FIG. 5D, FIG. 20A)
T2 construct: whole, on cells
T2 sequence (O00481 30-513 limits assumed): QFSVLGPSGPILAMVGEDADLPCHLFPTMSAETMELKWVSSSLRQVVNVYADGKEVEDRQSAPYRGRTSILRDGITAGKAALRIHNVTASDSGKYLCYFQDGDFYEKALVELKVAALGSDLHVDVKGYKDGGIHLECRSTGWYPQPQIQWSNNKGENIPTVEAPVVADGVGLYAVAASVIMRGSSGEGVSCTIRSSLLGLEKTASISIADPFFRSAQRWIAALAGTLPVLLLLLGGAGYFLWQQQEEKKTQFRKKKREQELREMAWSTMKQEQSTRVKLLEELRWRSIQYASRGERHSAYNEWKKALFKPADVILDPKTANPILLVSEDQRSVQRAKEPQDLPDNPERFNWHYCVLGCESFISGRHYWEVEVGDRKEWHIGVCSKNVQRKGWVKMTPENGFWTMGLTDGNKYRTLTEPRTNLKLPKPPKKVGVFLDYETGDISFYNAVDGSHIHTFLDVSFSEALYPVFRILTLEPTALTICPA
Description: FRET was detected in a compensated yellow 670/30 channel. […] The frequency of cells identified as FRET⁺ was examined on gated CFP⁺YFP⁺NIH-3T3 cells for dual tranfectants, and either CFP⁺ or YFP⁺ for single transfectants.

[10] = γδT cells from patient 1 (melanoma patient)

| Molecule | ICAM-1 ([3]; γδT cells from a healthy donor) | IFNγ ([3]; γδT cells from a healthy donor) | IL-4 ([3]; γδT cells from a healthy donor) | IL-8 ([3]; γδT cells from a healthy donor) [pg/mL] | IL-13 ([3]; γδT cells from a healthy donor) | IL-17A ([3]; γδT cells from a healthy donor) | MIP-1a ([3]; γδT cells from a healthy donor) | MIP-1b ([3]; γδT cells from a healthy donor) | TNFα ([3]; γδT cells from a healthy donor) | sE-selectin ([3]; γδT cells from a healthy donor) | sP-Selectin ([3]; γδT cells from a healthy donor) | GMCSF [3, 10] | ICAM-1 [3, 10] | IFNγ [3, 10] | IL-4 [3, 10] | IL-13 [3, 10] | IL-17A [3, 10] | MIP-1a [3, 10] | MIP-1b [3, 10] | TNFα [3, 10] | also measured |
| --- | --- | --- | --- | --- | --- | --- | --- | --- | --- | --- | --- | --- | --- | --- | --- | --- | --- | --- | --- | --- | --- |
| soluble BTN2A1 ectodomain (IgV and IgC domains; Gln29 to Ser245) with C-terminal linker, Avi-tag and His6-tag (ligand) | – | – | – | – | – | – | – | – | – | – | – | – | – | – | – | – | – | – | – | – | Kd [1]: 50 µM; Kd [2]: 50.4 µM |
| CC(=CCOP(=O)(O)OP(=O)(O)O)CO [HMBPP, 4-hydroxy-3-methyl-but-2-enyl pyrophosphate, reference compound] | 575.02 pg/mL and 570.14 pg/mL | 751.87 pg/mL and 798.38 pg/mL | 137.56 pg/mL and 117.91 pg/mL | 0.1 | 84.37 pg/mL and 87.99 pg/mL | 8.39 pg/mL and 9.97 pg/mL | 395.47 pg/mL and 392.74 pg/mL | 19239.36 pg/mL and 20123.08 pg/mL | 2186.67 pg/mL and 2148.53 pg/mL | 387.87 pg/mL and 373.47 pg/mL | 3183.34 pg/mL and 3082.95 pg/mL | 2172.54 pg/mL and 2625.54 pg/mL | 729.5 pg/mL and 885.22 pg/mL | 723.16 pg/mL and 791.56 pg/mL | 875.51 pg/mL and 1027.45 pg/mL | 478.3 pg/mL and 602.86 pg/mL | 9.23 pg/mL and 10.85 pg/mL | 321.54 pg/mL and 383.73 pg/mL | 9453.77 pg/mL and 12721.52 pg/mL | 2973.1 pg/mL and 3657.48 pg/mL | GMCSF ([3]; γδT cells from a healthy donor): 2375.52 pg/mL and 2349.07 pg/mL; sE-selectin [3, 10]: 373.32 pg/mL and 372.16 pg/mL; sP-Selectin [3, 10]: 2542.23 pg/mL and 2775.99 pg/mL; binding of pAg to BTN2A1 B30.2 domain [4]: no clear interaction; sensitivity for HMBPP relative to IPP [5]: ~1000 fold |
| B1 | 0.1 pg/mL | 0.1 pg/mL | 0.1 pg/mL | 0.1 | 0.1 pg/mL | 0.1 pg/mL | 9.16 pg/mL and 7.83 pg/mL | 50.62 pg/mL and 43.18 pg/mL | 0.1 pg/mL | 0.1 pg/mL | 0.1 pg/mL | 8.09 pg/mL and 9.22 pg/mL | 0.1 pg/mL | 0.1 pg/mL | 0.1 pg/mL | 16.14 pg/mL and 14.86 pg/mL | 0.1 pg/mL | 50.75 pg/mL and 51.38 pg/mL | 239.49 pg/mL and 252.05 pg/mL | 0.1 pg/mL | cytokine/chemokine secretion, in words ([3]; cancer patient derived Vγ9Vδ2 cells): reduction in levels of GMCSF, ICAM1 (to undetectable levels), IFNγ, IL-13, MIP1α and MIP1β as well as sE-selectin; cytokine/chemokine secretion, in words ([3]; healthy donor derived Vγ9Vδ2 cells): downregulation of MIP1α and b as well as GMCSF; IL-8 [3, 10]: 0.1 pg/mL; sP-Selectin [3, 10]: 0.1 pg/mL; indicators of TCR-dependent activation (CD25 induction, CD3 downregulation, IFN-γ and TNF production) [6]: significantly inhibited; HMBPP-induced activation (CD25 upregulation, IFN-γ production) [7]: failed to upregulate CD25 and produce IFN-γ |
| B2 | – | – | – | – | – | – | – | – | – | – | – | – | – | – | – | – | – | – | – | – | binding result [8]: no binding |
| B3 | – | – | – | – | – | – | – | – | – | – | – | – | – | – | – | – | – | – | – | – | binding result [9]: no binding |
